Experiment [1] addresses T1, GDF15 (ligand used in the GFRAL/RET cell assays) (UniProt Q99988 197-308, limits assumed).
T1 sequence (looked up): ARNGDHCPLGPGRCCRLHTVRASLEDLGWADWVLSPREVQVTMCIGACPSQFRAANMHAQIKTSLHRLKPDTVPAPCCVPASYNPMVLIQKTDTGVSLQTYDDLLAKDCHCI
The experiment can be described thus: cell-based or functional assay.

A further experiment addresses T2, GDNF (UniProt P39905 78-211).
T2 sequence (looked up): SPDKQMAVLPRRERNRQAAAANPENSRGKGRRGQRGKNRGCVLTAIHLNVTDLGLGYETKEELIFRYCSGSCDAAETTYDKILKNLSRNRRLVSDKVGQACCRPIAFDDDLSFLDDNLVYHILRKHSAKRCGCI
The experiment can be described thus: BLI Octet; IgG on sensor.

The target in another experiment is GDF8 (UniProt O14793 267-375). The experiment can be described thus: BLI Octet; IgG on sensor.
A further experiment concerns the target T3, GDF11 (UniProt O95390 299-407).
T3 construct: Also used as ligand in the Activin 2B receptor/SMAD reporter assay
The experiment can be described thus: BLI Octet; IgG on sensor.

The next experiment deals with T4, Human Activin B (human, UniProt P09529 293-407).
T4 sequence (looked up): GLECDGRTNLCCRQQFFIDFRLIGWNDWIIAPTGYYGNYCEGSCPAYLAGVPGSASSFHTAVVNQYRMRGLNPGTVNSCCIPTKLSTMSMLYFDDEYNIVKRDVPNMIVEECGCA
The experiment can be described thus: BLI Octet; IgG on sensor.

A further experiment concerns the target T5, Human GDF15 Fc (human, UniProt Q99988 195-308, limits assumed, biotinylated (EZ-Link Sulfo-NHS-Biotinylation Kit) in the SPR assay).
T5 construct: also called human GDF15-Fc fusion; biotinylated Human GDF15 Fc; not shown: Fc part
T5 sequence: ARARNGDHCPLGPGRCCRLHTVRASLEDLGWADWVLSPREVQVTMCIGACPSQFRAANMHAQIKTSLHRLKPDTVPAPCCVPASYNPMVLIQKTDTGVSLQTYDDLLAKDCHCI
The experiment can be described thus: BLI Octet; IgG on sensor, 100 nM antigen (avid). Here is the method: Briefly, ForteBio affinity measurements were performed by loading IgGs on-line onto AHC sensors. Sensors were equilibrated off-line in assay buffer for 30 min and then monitored on-line for 60 seconds for baseline establishment. Sensors with loaded IgGs were exposed to 100 nM antigen for 3 minutes, and afterwards were transferred to assay buffer for 3 min for off-rate measurement. All kinetics were analyzed using the 1:1 binding model.

The target of experiment [2] is T6, Human Activin A Fc (human, UniProt P08476 311-426).
T6 construct: not shown: Fc part
T6 sequence (looked up): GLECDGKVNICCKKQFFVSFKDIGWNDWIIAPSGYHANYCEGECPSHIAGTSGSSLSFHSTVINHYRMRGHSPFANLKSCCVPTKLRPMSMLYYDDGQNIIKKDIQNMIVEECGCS
The experiment can be described thus: BLI Octet; IgG on sensor, 100 nM antigen (avid).

A further experiment has as its target T7, Human BMP9 (human, UniProt Q9UK05 320-429).
T7 sequence (looked up): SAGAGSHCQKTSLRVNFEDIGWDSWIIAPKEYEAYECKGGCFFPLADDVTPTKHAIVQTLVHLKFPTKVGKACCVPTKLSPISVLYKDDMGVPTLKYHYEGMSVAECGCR
The experiment can be described thus: BLI Octet; IgG on sensor, 100 nM antigen (avid).

A further experiment addresses T8, Human BMP10 (human, UniProt O95393 317-424).
T8 sequence (looked up): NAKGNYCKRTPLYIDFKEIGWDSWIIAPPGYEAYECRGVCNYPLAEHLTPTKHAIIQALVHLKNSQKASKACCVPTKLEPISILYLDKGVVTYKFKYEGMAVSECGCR
The experiment can be described thus: BLI Octet; IgG on sensor, 100 nM antigen (avid).

In experiment [3] the target is T6, Human Activin A Fc. The experiment can be described thus: BLI Octet; IgG on sensor.
The target of a further experiment is T9, GDF10 (UniProt P55107 369-478).
T9 sequence (looked up): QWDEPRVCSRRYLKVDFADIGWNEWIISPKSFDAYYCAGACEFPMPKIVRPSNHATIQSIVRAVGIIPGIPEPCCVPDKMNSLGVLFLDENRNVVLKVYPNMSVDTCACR
The experiment can be described thus: BLI Octet; IgG on sensor, 100 nM antigen (avid).

T3 sequence (O95390 299-407 limits assumed): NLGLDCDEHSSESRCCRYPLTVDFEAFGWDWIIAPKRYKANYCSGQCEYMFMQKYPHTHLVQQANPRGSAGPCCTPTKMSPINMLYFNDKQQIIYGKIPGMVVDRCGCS

B1: GDF15 antibody agent Clone A, IgG (antibody, V domains shown)
VH: QVQLQESGPGLVKPSQTLSLTCTVSGGSITSGGSYWSWIRQHPGKGLEWIGAIVYSGSTYYNPSLKSRVTISVDTSKNQFSLKLSSVTAADTAVYYCARGVEYQHFDYWGQGTLVTVSS
VL: not shown
Take B1: the “GDF15-GFRAL RET pERK IC50 (pM)” value in experiment [1] is 102 pM. Besides, in experiment [1], the “GDF15-GFRAL-RET Luciferase IC50 (pM)” value came out at 75 pM. In addition, the binding result is on record as “no binding (tested: 100 nM)” with GDNF; “no binding (tested: 100 nM)” in the experiment with GDF8; “no binding (tested: 100 nM)” with GDF11; “no binding (tested: 100 nM)” with Human Activin B; “binds” in the experiment with Human BMP9; “binds” in the experiment with Human BMP10. Further, the Kd came out at 0.263 nM with Human GDF15 Fc and 7.34 nM with Human Activin A Fc [2].

B2: GDF15 antibody agent Clone G, IgG (antibody, V domains shown)
VH: QVQLVQSGAEVKKPGSSVKVSCKASGGTFQGYAISWARQAPGQGLEWMGGIIPPYATANYAQKFQGRVTITADESTSTAYMELSSLRSEDTAVYYCARGVGELHLDVWGQGTMVTVSS
VL: not shown
In the case of B2, the “GDF15-GFRAL RET pERK IC50 (pM)” value in experiment [1] amounted to 66.7 pM. Moreover, the “GDF15-GFRAL-RET Luciferase IC50 (pM)” value in experiment [1] turned out to be 97.1 pM. The binding result was “no binding (tested: 100 nM)” with GDNF; “no binding (tested: 100 nM)” with GDF8; “no binding (tested: 100 nM)” with GDF11; “no binding (tested: 100 nM)” with Human Activin A Fc [3]; “no binding (tested: 100 nM)” with Human Activin B; “binds” in the experiment with Human BMP9. Moreover, in the experiment with Human BMP10, the binding result is “binds”. For the same molecule, the equilibrium dissociation constant (Kd) with Human GDF15 Fc was 0.256 nM; in the experiment with GDF10, 36.8 nM.
